For the assay, the target named is T1, A5-Y384G-NYFP (full-length LMP1 with mutations in CTAR1 and CTAR2, NYFP at the C-terminus) (Epstein-Barr virus, B95-8 strain, UniProt P03230 1-386, amino acids 204-208 PQQAT mutated to AAAAA | Y384G).
T1 sequence: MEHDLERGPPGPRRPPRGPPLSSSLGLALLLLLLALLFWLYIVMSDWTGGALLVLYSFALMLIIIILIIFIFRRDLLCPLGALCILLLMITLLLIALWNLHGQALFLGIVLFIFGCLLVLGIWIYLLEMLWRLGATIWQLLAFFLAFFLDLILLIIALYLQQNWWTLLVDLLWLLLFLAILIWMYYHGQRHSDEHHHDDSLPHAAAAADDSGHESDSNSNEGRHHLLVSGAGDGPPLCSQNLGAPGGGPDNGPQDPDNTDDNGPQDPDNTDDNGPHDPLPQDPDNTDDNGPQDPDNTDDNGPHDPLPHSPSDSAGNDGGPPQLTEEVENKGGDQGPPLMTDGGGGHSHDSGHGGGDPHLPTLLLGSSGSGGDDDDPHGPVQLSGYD
Kind of assay: cell-based or functional assay.

B1: CYFP-TRAF2 (CYFP fused to the amino-terminus of TRAF2, amino acids 98-501) (domain or fragment)
chain: REVESLPAVCPSDGCTWKGTLKEYESCHEGRCPLMLTECPACKGLVRLGEKERHLEHECPERSLSCRHCRAPCCGADVKAHHEVCPKFPLTCDGCGKKKIPREKFQDHVKTCGKCRVPCRFHAIGCLETVEGEKQQEHEVQWLREHLAMLLSSVLEAKPLLGDQSHAGSELLQRCESLEKKTATFENIVCVLNREVERVAMTAEACSRQHRLDQDKIEALSSKVQQLERSIGLKDLAMADLEQKVLEMEASTYDGVFIWKISDFARKRQEAVAGRIPAIFSPAFYTSRYGYKMCLRIYLNGDGTGRGTHLSLFFVVMKGPNDALLRWPFNQKVTLMLLDQNNREHVIDAFRPDVTSSSFQRPVNDMNIASGCPLFCPVSKMEAKNSYVRDDAIFIKAIVDLTGL
Consider B1, for which the “NF-kB luciferase reporter activity in HEK-293T cells transfected with A5-Y384G-NYFP + A5-Y384G-CYFP (A5-Y384G BiFC), fold above vector; about 50% of LMP1 and LMP1-BiFC” value was approximately 22 fold.
